Measured values reported in US20150344570A1 (published 2015).
Numbering of substitutions follows the chain as printed. Names and notes keep the numbering of the source.

B1: H240-Kn192/H240-Hl204/L73-k0 (antibody, human IgG1, kappa)
heavy 1: QDQLVQSGAEVKKPGASVKVSCKASGFNIKDTYIQWVRQAPGQGLEWMGRIDPLRKQTKYREKFEGRVTITADTSTNTAYMELSSLRSEDTAVYYCVRSGREFDYWGQGTLVTVSSASTKGPSVFPLAPSSKSTSGGTAALGCLVKDYFPEPVTVSWNSGALTSGVHTFPAVLQSSGLYSLSSVVTVPSSSLGTQTYICNVNHKPSNTKVDKKVEPKSCDKTHTCPPCPAPEYNWGPMVFLFPPKPKDTLMISRTPEVTCVVVDVSDEDPEVKFNWYVDGVEVHNAKTKPREKQYNATYRVVSVLTVLHQDWLNGKEYKCKVSNKDLPAPIEKTISKAKGQPREPQVCTLPPSRDELTKNQVSLWCLVKGFYPSDIAVEWESNGQPENNYKTTPPVLDSDGSFFLYSKLTVDKSRWQQGNVFSCSVMHEALHNHYTQKSLSLSP
heavy 2: QDQLVQSGAEVKKPGASVKVSCKASGFNIKDTYIQWVRQAPGQGLEWMGRIDPLRKQTKYREKFEGRVTITADTSTNTAYMELSSLRSEDTAVYYCVRSGREFDYWGQGTLVTVSSASTKGPSVFPLAPSSKSTSGGTAALGCLVKDYFPEPVTVSWNSGALTSGVHTFPAVLQSSGLYSLSSVVTVPSSSLGTQTYICNVNHKPSNTKVDKKVEPKSCDKTHTCPPCPAPELLTGPSVFLFPPKPKDTLMISRTPEVTCVVVDVSHEEPEVKFNWYVDGVEVHNAKTKPREEQYNSTYRVVSVLTVLHQDWLNGKEYKCKVSNDALPKPEEETISKAKGQPREPQVYTLPPSRCELTKNQVSLSCAVKGFYPSDIAVEWESNGQPENNYKTTPPVLDSDGSFFLVSKLTVDKSRWQQGNVFSCSVMHEALHNHYTQKSLSLSP
light: DIQMTQSPSSLSASVGDRVTITCRASQDIHKYIAWYQQKPGQAPRLLIQYTSTLQPGVPSRFSGSGSGTDYTFTISSLQPEDIATYYCLQYEQLRTFGGGTKVEIKRTVAAPSVFIFPPSDEQLKSGTASVVCLLNNFYPREAKVQWKVDNALQSGNSQESVTEQDSKDSTYSLSSTLTLSKADYEKHKVYACEVTHQGLSSPVTKSFNRGEC
notes: Y235N and E294K in H240-Kn120; G236T and I332E in H240-Hl068; also called H240-Kn192/H240-HI204/L73-k0
B2: H240-Kn201/H240-Hl076/L73-k0 (antibody, human IgG1, kappa)
heavy 1: B1 heavy 1 with Y233F, N234Q, D269E, K293E, D326A
heavy 2: B1 heavy 2 with T235G, K329M, E331I
light: B1 light
B3: H240-Kn217/H240-Hl068/L73-k0 (antibody, human IgG1, kappa)
heavy 1: B1 heavy 1 with Y233D, N234Y, K293E
heavy 2: B1 heavy 2 with T235G, E331I
light: B1 light
B4: H240-Kn221/H240-Hl068/L73-k0 (antibody, human IgG1, kappa)
heavy 1: B1 heavy 1 with Y233T, N234Y, K293E
heavy 2: B1 heavy 2 with T235G, E331I
light: B1 light
B5: H240-Kn202/H240-Hl076/L73-k0 (antibody, human IgG1, kappa)
heavy 1: B1 heavy 1 with Y233E, N234Q, D269E, K293E, D326A
heavy 2: B1 heavy 2 with T235G, K329M, E331I
light: B1 light
B6: H240-Kn193/H240-Hl204/L73-k0 (antibody, human IgG1, kappa)
heavy 1: B1 heavy 1 with K293R
heavy 2: B1 heavy 2
light: B1 light
notes: Y235N and E294R in H240-Kn120; G236T and I332E in H240-Hl068; also called H240-Kn193/H240-HI204/L73-k0
B7: H240-Kn199/H240-Hl068/L73-k0 (antibody, human IgG1, kappa)
heavy 1: B1 heavy 1 with Y233L, N234Y, K293E
heavy 2: B1 heavy 2 with T235G, E331I
light: B1 light
B8: H240-Kn208/H240-Hl076/L73-k0 (antibody, human IgG1, kappa)
heavy 1: B1 heavy 1 with Y233D, N234Q, D269E, K293E, D326A
heavy 2: B1 heavy 2 with T235G, K329M, E331I
light: B1 light
B9: H240-Kn184/H240-Hl068/L73-k0 (antibody, human IgG1, kappa)
heavy 1: B1 heavy 1 with Y233E, N234Y, K293E
heavy 2: B1 heavy 2 with T235G, E331I
light: B1 light
B10: GpH7-A5/GpH7-B3-03-20W/GpL16-k0 (antibody, human IgG1, kappa)
heavy 1: not shown
heavy 2: not shown
light: DIVMTQSPLSLPVTPGEPASISCQASESLVHSNRNTYLHWYLQKPGQSPQLLIYKVSNRFSGVPDRFSGSGSGTDFTLKISRVEAEDVGVYYCSQNTHVPPTFGQGTKVEIERTVAAPSVFIFPPSDEQLKSGTASVVCLLNNFYPREAKVQWKVDNALQSGNSQESVTEQDSKDSTYSLSSTLTLSKADYEKHKVYACEVTHQGLSSPVTKSFNRGEC
notes: G236W in the GpH7-B3 chain only; also called He Ab G236_20W; GpH7-A5/GpH7-B3 variant G236_20W/GpL16-k0
B11: GpH7-A5/GpH7-B3-01-15Y/GpL16-k0 (antibody, human IgG1, kappa)
heavy 1: not shown
heavy 2: not shown
light: B10 light
notes: L234Y in the GpH7-B3 chain only; also called He Ab L234_15Y; GpH7-A5/GpH7-B3 variant L234_15Y/GpL16-k0

Molecular target: FcγRIIIa F (human, UniProt P08637 17-208)
Test: SPR (Biacore), KD

Chain of FcγRIIIa F (P08637 17-208): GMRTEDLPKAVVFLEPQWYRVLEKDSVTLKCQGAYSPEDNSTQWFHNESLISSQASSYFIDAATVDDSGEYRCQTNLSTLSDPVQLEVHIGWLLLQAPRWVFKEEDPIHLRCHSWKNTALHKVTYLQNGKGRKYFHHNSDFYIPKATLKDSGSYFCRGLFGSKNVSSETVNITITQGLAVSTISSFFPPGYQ

Row | fold binding against the variant before introduction of I332E and Y235N | fold binding activity against H240-Kn033/H240-Hl033/L73-k0 | Binder
1 | 2 times | – | B1
2 | – | ≥ 100 fold | B2
3 | – | ≥ 100 fold | B3
4 | – | ≥ 100 fold | B4
5 | – | ≥ 100 fold | B5
6 | 2 times | – | B6
7 | – | ≥ 100 fold | B7
8 | – | ≥ 100 fold | B8
9 | – | ≥ 100 fold | B9

Molecular target: FcγRIIIa V (human, UniProt P08637 17-208)
Test: SPR (Biacore), KD

Chain of FcγRIIIa V (P08637 17-208): as above

Row | fold binding against the variant before introduction of I332E and Y235N | fold binding activity against H240-Kn033/H240-Hl033/L73-k0 | Binder
10 | 8 times | – | B1
11 | – | ≥ 100 fold | B2
12 | – | ≥ 100 fold | B3
13 | – | ≥ 100 fold | B4
14 | – | ≥ 100 fold | B5
15 | 8 times | – | B6
16 | – | ≥ 100 fold | B7
17 | – | ≥ 100 fold | B8
18 | – | ≥ 100 fold | B9

Molecular target: T1, FcγRIIIa extracellular domain with C-terminal His tag (human, UniProt P08637 17-208)
Test: SPR (Biacore), one H chain altered; HeCon Ab GpH7-A5/GpH7-B3/GpL16-k0 = 100

T1 sequence (P08637 17-208): as above

Row | He/Con_3a | Binder
19 | 135% | B10
20 | 130% | B11

Molecular target: T1, FcγRIIIa extracellular domain with …
Test: SPR (Biacore), relative binding activity; GpH7-A5/GpH7-B3/GpL16-k0 = 100

Row | FcγRIIIa BINDING ACTIVITY | Binder
21 | 140% | B10
22 | 131% | B11
